Drawing on publication PMC4635315 (2015), this text covers Kd for 1 molecule.

The target of one assay is BARTL1 (CCDC104/CFAP36) (Homo sapiens, UniProt Q96G28). Put plainly: fluorescence polarization. Background: In fluorescence polarisation assays a small probe gives low polarisation when free and higher when bound to something large.
Assay [1] concerns the target BARTL1 (CCDC104/CFAP36) 1-133 (Homo sapiens, UniProt Q96G28). Description: fluorescence polarization.

Sequence of BARTL1 (CCDC104/CFAP36) (Q96G28 whole entry): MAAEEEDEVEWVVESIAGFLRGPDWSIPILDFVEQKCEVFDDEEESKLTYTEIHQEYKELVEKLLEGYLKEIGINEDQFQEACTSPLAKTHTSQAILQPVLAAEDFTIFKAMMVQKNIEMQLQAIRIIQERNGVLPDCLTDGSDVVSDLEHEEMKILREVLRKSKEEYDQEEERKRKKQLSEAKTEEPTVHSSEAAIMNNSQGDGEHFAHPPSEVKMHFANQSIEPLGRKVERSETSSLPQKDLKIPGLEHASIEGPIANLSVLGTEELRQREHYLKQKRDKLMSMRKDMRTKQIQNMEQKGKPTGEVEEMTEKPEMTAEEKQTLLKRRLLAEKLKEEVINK
Sequence of BARTL1 (CCDC104/CFAP36) 1-133 (Q96G28 1-133): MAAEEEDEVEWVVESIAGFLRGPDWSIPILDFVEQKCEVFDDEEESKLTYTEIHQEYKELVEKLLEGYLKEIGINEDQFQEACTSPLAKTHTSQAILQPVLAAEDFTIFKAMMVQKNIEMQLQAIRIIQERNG

B1: Arl2 (protein)
chain: GLLTILKKMKQKERELRLLMLGLDNAGKTTILKKFNGEDVDTISPTLGFNIKTLEHRGFKLNIWDVGGQKSLRSYWRNYFESTDGLIWVVDSADRQRMQDCQRELQSLLVEERLAGATLLIFANKQDLPGALSCNAIQEALELDSIRSHHWRIQGCSAVTGEDLLPGIDWLLDDISSRVFTAD
modifications: mant-GppNHp-bound Arl2
With B1, the Kd in the assay with BARTL1 (CCDC104/CFAP36) is roughly 10 µM; in assay [1], roughly 4.3 µM.

Broadly, the Kd is the equilibrium constant for the complex coming apart. Higher therefore signals weaker binding.
